# Changes are numbered by the printed parent chain. Names and notes keep the numbering of the source.
# T1: SLFN11 (Homo sapiens, UniProt Q7Z7L1, S753D)
# T1 construct: S753D monomer, 104 kDa, model residues 7-897
# T1 sequence (Q7Z7L1 1-901 S753D): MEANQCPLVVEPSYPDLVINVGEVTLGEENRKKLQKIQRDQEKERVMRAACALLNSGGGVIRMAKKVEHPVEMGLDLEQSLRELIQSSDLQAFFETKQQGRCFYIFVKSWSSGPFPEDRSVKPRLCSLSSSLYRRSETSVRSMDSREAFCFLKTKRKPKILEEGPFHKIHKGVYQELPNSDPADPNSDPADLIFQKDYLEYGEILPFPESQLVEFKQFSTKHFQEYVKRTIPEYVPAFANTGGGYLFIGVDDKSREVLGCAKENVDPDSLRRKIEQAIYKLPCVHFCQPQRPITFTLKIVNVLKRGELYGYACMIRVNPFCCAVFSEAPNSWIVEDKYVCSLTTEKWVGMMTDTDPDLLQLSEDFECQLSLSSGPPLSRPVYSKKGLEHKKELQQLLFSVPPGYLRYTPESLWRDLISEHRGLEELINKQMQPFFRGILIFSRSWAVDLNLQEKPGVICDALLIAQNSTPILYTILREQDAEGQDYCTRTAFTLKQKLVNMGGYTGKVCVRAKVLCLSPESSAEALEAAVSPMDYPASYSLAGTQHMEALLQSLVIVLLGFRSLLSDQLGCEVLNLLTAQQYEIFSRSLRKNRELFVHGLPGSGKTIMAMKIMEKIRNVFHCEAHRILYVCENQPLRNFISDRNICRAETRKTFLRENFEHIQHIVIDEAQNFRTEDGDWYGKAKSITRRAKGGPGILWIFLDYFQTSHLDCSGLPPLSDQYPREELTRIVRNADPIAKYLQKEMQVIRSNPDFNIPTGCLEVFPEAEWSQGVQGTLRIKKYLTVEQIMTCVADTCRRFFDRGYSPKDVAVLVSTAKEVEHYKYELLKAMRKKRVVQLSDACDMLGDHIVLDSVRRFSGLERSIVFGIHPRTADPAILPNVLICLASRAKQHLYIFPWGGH
# B1: Human Schlafen 11 (SLFN11), wild type (enzyme)
# chain: T1 sequence (Q7Z7L1 1-901 S753D) with D753S
# notes: Schlafen 11 (SLFN11), human; N-terminal nuclease domain, linker domain and C-terminal helicase domain; also called SLFN11^wt
# B2: SLFN11 phosphomimetic mutant S219D (enzyme, human)
# chain: T1 sequence (Q7Z7L1 1-901 S753D) with S219D, D753S
# notes: Schlafen 11 (SLFN11), human, with the phosphomimetic mutation S219D in the nuclease domain; Made by quick change PCR from the wild-type construct; also called SLFN11^S219D
# B3: SLFN11 phosphomimetic mutant T230D (enzyme, human)
# chain: T1 sequence (Q7Z7L1 1-901 S753D) with T230D, D753S
# notes: Schlafen 11 (SLFN11), human, with the phosphomimetic mutation T230D in the nuclease domain; Made by quick change PCR from the wild-type construct; also called SLFN11^T230D
# How the values were obtained:
# [1] = target: T1, SLFN11; assay: nanoDSF thermal shift (Tycho NT.[…]); format: binding; details: 1 mM nucleotide, 300 nM protein, 25 mM Tris pH 7.5, 60 mM NaCl, 2 mM MgCl2
# [2] = target: the molecule itself; assay: mass photometry; 50 nM SLFN11 in 25 mM Tris pH 7.5, 2 mM MgCl2, 1 mM DTT with variable concentrations of NaCl (80 mM NaCl in Fig. 4d, e); dimer to monomers
Molecule,inflection temperature shift [1],stoichiometry N [2]
Nc1ncnc2c1ncn2[C@@H]1O[C@H](COP(=O)(O)OP(=O)(O)OP(=O)(O)O)[C@@H](O)[C@H]1O [ATP],ATP and ATPγS caused a large increase in the inflection temperatures of SLFN11^S753D,–
B1,–,2
B2,–,2
B3,–,2

# Source: PMC11615386, “Phosphorylation-mediated conformational change regulates human SLFN11” (Nature Communications, 2024)
